Source: patent publication US20050288217A1

Target: αVβ3 integrin (UniProt P06756)
Test: binding to αVβ3, against the unsubstituted sequence

αVβ3 integrin, sequence (P06756 31-1048, chain 1 of 2): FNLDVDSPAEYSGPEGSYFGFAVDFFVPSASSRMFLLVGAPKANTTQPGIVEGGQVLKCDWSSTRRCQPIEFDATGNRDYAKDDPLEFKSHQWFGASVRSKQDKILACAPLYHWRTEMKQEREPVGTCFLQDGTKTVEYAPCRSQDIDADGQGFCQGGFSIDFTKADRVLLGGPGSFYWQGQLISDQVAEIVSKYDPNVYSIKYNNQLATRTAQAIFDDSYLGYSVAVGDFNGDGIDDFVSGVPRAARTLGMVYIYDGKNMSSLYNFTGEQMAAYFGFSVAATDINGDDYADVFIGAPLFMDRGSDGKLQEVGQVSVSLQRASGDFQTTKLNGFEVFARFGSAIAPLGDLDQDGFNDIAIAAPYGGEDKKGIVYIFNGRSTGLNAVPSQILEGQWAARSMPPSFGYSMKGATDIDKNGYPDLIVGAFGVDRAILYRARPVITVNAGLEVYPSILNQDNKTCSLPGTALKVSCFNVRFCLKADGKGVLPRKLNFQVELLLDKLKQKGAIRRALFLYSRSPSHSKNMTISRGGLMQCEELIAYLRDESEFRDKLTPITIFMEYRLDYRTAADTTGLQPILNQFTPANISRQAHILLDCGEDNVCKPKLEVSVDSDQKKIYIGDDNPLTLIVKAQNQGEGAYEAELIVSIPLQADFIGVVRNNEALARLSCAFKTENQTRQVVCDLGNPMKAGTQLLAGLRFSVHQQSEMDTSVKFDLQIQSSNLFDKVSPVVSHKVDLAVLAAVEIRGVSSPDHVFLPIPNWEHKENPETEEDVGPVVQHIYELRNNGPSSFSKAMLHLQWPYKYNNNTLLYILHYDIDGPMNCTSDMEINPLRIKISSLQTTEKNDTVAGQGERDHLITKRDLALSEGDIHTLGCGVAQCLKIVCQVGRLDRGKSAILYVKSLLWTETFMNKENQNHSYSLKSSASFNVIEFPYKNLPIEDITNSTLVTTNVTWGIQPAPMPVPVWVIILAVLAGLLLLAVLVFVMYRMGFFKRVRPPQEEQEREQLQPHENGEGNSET
αVβ3 integrin, sequence (P05106 27-788, chain 2 of 2, further chain): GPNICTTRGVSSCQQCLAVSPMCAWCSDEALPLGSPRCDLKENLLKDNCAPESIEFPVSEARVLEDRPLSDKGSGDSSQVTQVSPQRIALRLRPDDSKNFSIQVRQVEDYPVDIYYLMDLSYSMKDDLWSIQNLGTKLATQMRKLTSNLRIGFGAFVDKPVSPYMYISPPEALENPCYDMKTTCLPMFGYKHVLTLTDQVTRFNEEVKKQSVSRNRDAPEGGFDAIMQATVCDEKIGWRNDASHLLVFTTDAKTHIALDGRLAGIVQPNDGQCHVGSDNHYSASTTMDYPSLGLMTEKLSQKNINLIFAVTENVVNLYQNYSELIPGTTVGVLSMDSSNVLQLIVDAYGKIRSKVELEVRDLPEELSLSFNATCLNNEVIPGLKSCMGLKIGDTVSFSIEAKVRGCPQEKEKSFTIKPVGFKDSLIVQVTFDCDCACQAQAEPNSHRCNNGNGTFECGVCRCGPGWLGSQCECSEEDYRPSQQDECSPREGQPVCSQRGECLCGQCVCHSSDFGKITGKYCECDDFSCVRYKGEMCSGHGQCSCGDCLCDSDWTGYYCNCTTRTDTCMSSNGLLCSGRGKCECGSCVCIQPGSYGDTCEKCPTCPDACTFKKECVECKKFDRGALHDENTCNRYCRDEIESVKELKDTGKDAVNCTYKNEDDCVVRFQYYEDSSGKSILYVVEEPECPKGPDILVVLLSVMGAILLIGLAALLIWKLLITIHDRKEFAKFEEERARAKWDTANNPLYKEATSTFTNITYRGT

## vitronectin sequence with the single arginine at position 374 changed to alanine (peptide)
  decrease in binding: 70%
